Test results from US20240307536A1.
One block for each substance: values may come before it.

Assays:
Assay in all cases: cell-based or functional assay
[1] = target: CXCR3 on SAK cells (human) (UniProt P49682)
[2] = target: MHC class I on MV411 cells (human)
[3] = target: CXCR2 on SAK cells (human) (UniProt P25025)
UniProt P25025, sequence (P25025 whole entry): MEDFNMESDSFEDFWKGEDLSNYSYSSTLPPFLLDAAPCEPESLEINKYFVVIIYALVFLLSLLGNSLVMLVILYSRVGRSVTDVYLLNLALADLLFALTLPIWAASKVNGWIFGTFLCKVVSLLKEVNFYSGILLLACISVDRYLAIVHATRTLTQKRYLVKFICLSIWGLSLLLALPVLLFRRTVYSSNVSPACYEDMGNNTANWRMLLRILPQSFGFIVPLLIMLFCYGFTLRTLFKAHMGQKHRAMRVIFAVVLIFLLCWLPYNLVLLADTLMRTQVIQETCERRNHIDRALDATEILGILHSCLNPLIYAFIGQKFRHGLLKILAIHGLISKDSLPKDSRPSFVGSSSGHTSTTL

UniProt P49682, sequence (P49682 whole entry): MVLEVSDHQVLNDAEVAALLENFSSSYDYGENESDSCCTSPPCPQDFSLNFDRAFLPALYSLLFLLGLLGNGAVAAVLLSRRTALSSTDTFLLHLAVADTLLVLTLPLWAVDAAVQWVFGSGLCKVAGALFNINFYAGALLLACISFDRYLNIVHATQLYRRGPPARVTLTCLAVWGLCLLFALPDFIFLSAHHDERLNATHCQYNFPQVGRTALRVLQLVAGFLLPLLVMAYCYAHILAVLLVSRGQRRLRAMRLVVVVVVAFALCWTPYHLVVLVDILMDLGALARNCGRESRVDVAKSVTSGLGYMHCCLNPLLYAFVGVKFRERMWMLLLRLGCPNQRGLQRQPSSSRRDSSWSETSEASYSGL

- Transwell migration of SAK cells within four hours, percentage of the input cells (500 ng/ml IP-10) [1]: 30%
Substance: IP-10 (PeproTech EC) (from UniProt P02778 22-98) (ligand)

Substance: anti-MHC I antibody (W6/32 clone, Biolegend)
- cytotoxic activity of SAK cells against MV411 cells kept in the presence of 1 ug/ml anti-MHC I antibody, CFSE-based cytotoxicity assay [2]: > 40%

- Transwell migration of SAK cells within four hours, percentage of the input cells (100 ng/mL IL-8) [3]: 3%
Substance: rhIL-8 (PeproTech EC) (from UniProt P10145 28-99) (ligand)
